Reference: the supplement of paper PMC10201428
± gives the standard deviation of the averaged measurements.

B1: library; a variant is named by its letters at N, in order (parent)
chain: ACATTTGTTGATACAACCATAAAATGATAATTACACCCATAAATTGATAATTATCACACCCANNNNNNNNNNNNNNCTCTGATCATAGTCAGACCAACATTGCTACGACCCGTATTCGCACCGACAC

Tests used:
[1] = variants of: B1; assay: relative integration efficiency (T-RL orientation) vs wild-type transposon end (log2 (normalized fold change)); transposon end mutated: right end (5 bp flank + 75 bp right end); higher = more efficient transposition; details: with VchCAST RNA-guided transposition machinery (E. coli BL21(DE3) host, lacZ target)
Description: (§1)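 Pooled, barcoded VchCAST (Tn6677) mini-transposon donor libraries; each variable transposon-end sequence sits in a fixed pDonor mini-transposon context (10-bp barcode and cargo not included). Left- or right-end libraries were co-transformed with pEffector (TniQ-Cascade, TnsABC, lacZ crRNA, T7, 0.1 mM IPTG) into E. coli BL21(DE3) and grown 18 h at 37 C. T-LR and T-RL junction amplicons were sequenced; output/input barcode fold change was normalised to the mean of four wild-type barcodes and log2-transformed. Two biological replicates; zero-count/undetected variants carry floor values (-10 / -15), censored here. Barcode uncoupling by PCR recombination adds noise.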

[2] = variants of: B1; assay: relative integration efficiency (T-LR orientation) vs wild-type transposon end (log2 (normalized fold change)); transposon end mutated: right end (5 bp flank + 75 bp right end); higher = more efficient transposition; details: with VchCAST RNA-guided transposition machinery (E. coli BL21(DE3) host, lacZ target)
Description: as §1

Row | Variant | relative integration efficiency (log2) [1] | relative integration efficiency (log2) [2]
1 | TAAATTGATATTGC A58G | -0.236 ± 0.0068 | 1.32 ± 0.19
2 | TAAATTGATATTGC A58C | -0.461 ± 0.11 | 1.05 ± 0.17
3 | TAAATTGATATTGC A47C | -0.409 ± 0.05 | -0.216 ± 0.54
4 | TAAATTGATATTGC A47G | -0.0921 ± 0.17 | -0.453 ± 0.42
5 | TAAATTGATATTGC A47T | -0.574 ± 0.2 | -0.552 ± 0.16
6 | TAAATTGATATTGC C37G | -0.123 ± 0.11 | -0.169 ± 0.072
7 | TAAATTGATATTGC C37T | -0.229 ± 0.057 | -0.304 ± 0.57
8 | TAAATTGATATTGC C37A | -0.531 ± 0.059 | -1.21 ± 0.23
9 | TAAATTGATATTGC A21T | 0.0476 ± 0.12 | -0.217 ± 0.052
10 | TAAATTGATATTGC C79T | 0.00455 ± 0.031 | -0.191 ± 0.27
11 | TAAATTGATATTGC C79G | -0.0645 ± 0.0099 | -0.196 ± 0.19
12 | TAAATTGATATTGC C79A | -0.158 ± 0.087 | -0.334 ± 0.18
13 | TAAATTGATATTGC G10C | -0.405 ± 0.069 | -1.81 ± 0.24
14 | TAAATTGATATTGC G10T | -0.7118 ± 0.001 | -1.93 ± 0.22
15 | TAAATTGATATTGC G10A | 0.115 ± 0.017 | -0.464 ± 0.17
16 | TAAATTGATATTGC A41T | -0.0667 ± 0.018 | -0.148 ± 0.022
17 | TAAATTGATATTGC A41G | -0.104 ± 0.45 | -0.399 ± 1.1
18 | TAAATTGATATTGC A41C | -0.815 ± 0.047 | -0.78 ± 0.23
19 | TAAATTGATATTGC A53C | -0.408 ± 0.19 | 0.07 ± 0.052
20 | TAAATTGATATTGC A53G | -0.385 ± 0.25 | -0.269 ± 0.048

Row | Variant | relative integration efficiency (log2) [1] | relative integration efficiency (log2) [2]
21 | TAAATTGATATTGC A53T | -0.33 ± 0.038 | -0.318 ± 0.48
22 | TAAATTGATATTGC C14T | -0.00853 ± 0.13 | 0.0199 ± 0.32
23 | TAAATTGATATTGC C14G | -0.477 ± 0.036 | -1.2 ± 0.21
24 | TAAATTGATATTGC C14A | -0.119 ± 0.027 | -0.254 ± 0.16
25 | TAAATTGATATTGC C17G | -0.0518 ± 0.013 | -0.402 ± 0.0041
26 | TAAATTGATATTGC C17A | -0.124 ± 0.042 | -0.331 ± 0.098
27 | TAAATTGATATTGC C17T | 7.24e-05 ± 0.068 | -0.744 ± 0.39
28 | TAAATTGATATTGC C60G | 0.0119 ± 0.012 | 0.315 ± 0.03
29 | TAAATTGATATTGC C60A | -0.462 ± 0.027 | 1.55 ± 0.14
30 | TAAATTGATATTGC C60T | -0.182 ± 0.028 | 0.2 ± 0.2
31 | TAAATTGATATTGC A35C | -0.0746 ± 0.015 | -0.0637 ± 0.3
32 | TAAATTGATATTGC A35T | -0.27 ± 0.02 | -0.45 ± 0.076
33 | TAAATTGATATTGC A35G | -0.559 ± 0.067 | -0.531 ± 0.13
34 | TAAATTGATATTGC C34T | -1.32 ± 0.14 | -0.474 ± 0.43
35 | TAAATTGATATTGC C34A | -0.0537 ± 0.0045 | 0.162 ± 0.16
36 | TAAATTGATATTGC C34G | -0.73 ± 0.11 | -0.479 ± 0.0065
37 | TAAATTGATATTGC A23C | 0.346 ± 0.047 | 0.198 ± 0.087
38 | TAAATTGATATTGC A23T | 1.42 ± 0.079 | 1.34 ± 0.053
39 | TAAATTGATATTGC A23G | -0.0394 ± 0.13 | -0.227 ± 0.71
40 | TAAATTGATATTGC C36T | -0.172 ± 0.077 | -0.179 ± 0.053

Row | Variant | relative integration efficiency (log2) [1] | relative integration efficiency (log2) [2]
41 | TAAATTGATATTGC C36A | 0.40973 ± 0.00019 | 0.478 ± 0.0049
42 | TAAATTGATATTGC C36G | -0.469 ± 0.0075 | -0.695 ± 0.23
43 | GAAATTGATATTGC A62C | -0.604 ± 0.16 | 2.52 ± 0.065
44 | TAAATTGATATTGC A22C | -0.874 ± 0.074 | -1.72 ± 0.82
45 | TAAATTGATATTGC A22T | -0.215 ± 0.042 | -0.148 ± 0.0031
46 | TAAATTGATATTGC A22G | -0.771 ± 0.018 | -1.09 ± 0.47
47 | TAAATTGATATTGC C77T | -0.00923 ± 0.0046 | -0.351 ± 0.044
48 | TAAATTGATATTGC C77A | -0.111 ± 0.093 | -0.0608 ± 0.27
49 | TAAATTGATATTGC C77G | 0.0121 ± 0.017 | -0.217 ± 0.018
50 | TAAATTGATATTGC A43C | -0.127 ± 0.027 | -0.0895 ± 0.24
51 | TAAATTGATATTGC A43G | -0.0412 ± 0.15 | -0.246 ± 0.17
52 | TAAATTGATATTGC A43T | -0.127 ± 0.0053 | -0.303 ± 0.3
53 | TAAATTGATATTGC C57T | -0.204 ± 0.0024 | 0.91 ± 0.032
54 | TAAATTGATATTGC C57A | -0.104 ± 0.063 | 0.461 ± 0.12
55 | TAAATTGATATTGC C57G | -0.05 ± 0.075 | 1.552 ± 0.015
56 | TAAATTGATATTGC C61T | -0.0918 ± 0.017 | 0.755 ± 0.17
57 | TAAATTGATATTGC C61A | -0.241 ± 0.071 | 1.04 ± 0.15
58 | TAAATTGATATTGC C61G | 0.142 ± 0.018 | 0.81 ± 0.3
